The data set addresses T1, TREX1 catalytic core (murine) (UniProt Q91XB0).
T1 sequence: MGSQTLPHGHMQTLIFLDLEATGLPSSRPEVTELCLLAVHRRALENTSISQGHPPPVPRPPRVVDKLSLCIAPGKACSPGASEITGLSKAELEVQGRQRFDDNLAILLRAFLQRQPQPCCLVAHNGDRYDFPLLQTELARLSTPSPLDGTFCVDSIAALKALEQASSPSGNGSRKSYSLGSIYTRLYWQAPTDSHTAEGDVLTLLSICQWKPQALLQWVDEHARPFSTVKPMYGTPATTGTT
As to the kind of experiment: fluorescence polarization. Conditions: FP with 5 nM ligand at 25 C (some FPCD at 4 C); buffer for MS2-CP (BB6): 100 mM Tris pH 7.5, 10 mM MgCl2, 80 mM KCl, 0.1 mg/mL BSA; other buffers not in ….

On to “GAAGTGCCCGTGACGCGCGCGACGCCAGCCGACGAAGGCGGGACCCAGAGCGCGCGCCGT (double strand) [ds-[F]d(N)60]”, for which the Kd came out at 30 nM.

Usually Kd stands for the concentration at which binding is half-saturated. Read a high Kd as lower affinity.

The values are drawn from paper PMC10293810.
